Test: yeast display, Sf9 membrane polyspecificity reagent, FACS + sequencing; frameworks hold sequencing errors
Summary of the method: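 Polyreactivity labels are assigned by the sorting gate from which each nanobody was recovered. The gates were low and high (top ~1%), set on anti-HA fluorescence for expression and streptavidin fluorescence for reagent binding. Before sorting, galactose-induced (36–48 hours) yeast display cells were stained for 1 hour at 4 °C with 10% biotinylated, detergent-solubilized Sf9 membrane reagent.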

## QVQLVESGGGLVQAGGSLRLSCAASGSTFYRNAMGWYRQAPGKERELVAAISSTGGSTYYADSVKGRFTISRDNAKNTVYLQMNSLKAEDTAVYYCAVDPGLTKGFGYWGQGTHVTVSS
  polyreactivity (PSR sort gate): low polyreactivity

## QVQLVESGGGLVQAGGSLRLSCAASGSTFYRNAMGWYRQAPGKERELVAAITWSGGTTYYADSVKGRFTISRDNAKNTVYLQMNSLKPEDTAVYYCAARFILAPRRGYNAYKYYYWGQGTQVTVSS
  polyreactivity (PSR sort gate): high polyreactivity

## QVQLVESGGGLVQAGGSLRLSCAASGSTFYRNTMGWYRQAPGKERELVAAIRRSGSSTYYADSVKGRFTISRDNAKNTVYLQMNSLKPDDTAVYYCAKEGLSYRYYYCGQGTQVTVSS
  polyreactivity (PSR sort gate): high polyreactivity

## QVQLVESGGGLVQAGGSLRLSCAASGSTFYRYAMGCYRQAPGKERELVAAISSRGGSTYYADSVKGRFTISRDNAKNTVYLQMNSLKPEDTAVYYCAAQVYGTAGYYYWGQGTQVTVSS
  polyreactivity (PSR sort gate): high polyreactivity

## QVQLVESGGGLVQAGGSLRLSCAASGSTFYRYAMGWYRQAPGKEREFVAAISRSGGSTYYADSVKGRFTISRDNAKNTVYLQMNSLKPEDTAVYYCNKYYWYPYGRAHYYGYWGQGTQVTVSS
  polyreactivity (PSR sort gate): high polyreactivity

## QVQLVESGGGLVQAGGSLRLSCAASGSTFYRYAMGWYRQAPGKERELVAAISRNGGSTYYSDSVKGRFTISRDNAKNTVYLQMNSLKPEDTAVYYCAAVWPYGSRVAPMDYWGQGTQVTVSS
  polyreactivity (PSR sort gate): high polyreactivity

## QVQLVESGGGLVQAGGSLRLSCAASGSTFYRYAMGWYRQAPGKERELVAAISSDGTTYYADSVKGRFTISRDNAKNTVYLQMISLKPEDTAVYDCAAEGIRRSQRFNYWGQGTQVTVSS
  polyreactivity (PSR sort gate): high polyreactivity

## QVQLVESGGGLVQAGGSLRLSCAASGSTFYRYAMGWYRQAPGKERELVAAISYRGGSTYYADSVKGRFTISRDNAKNTVYLQMNSLKPEDTAVYYCNKRSTRRYDYWGQGTQVTVSS
  polyreactivity (PSR sort gate): high polyreactivity

## QVQLVESGGGLVQAGGSLRLSCAASGSTFYRYAMGWYRQAPGKERELVAVITSGGSTNYADSVKGRFTISRDNAKNTVYLQMNSLKPEDTAVYYCAKEDGYSQLKTTFDEAGYGSWGQGTQVTVSS
  polyreactivity (PSR sort gate): low polyreactivity

## QVQLVESGGGLVQAGGSLRLSCAASGSTFYRYTMGWYRQAPGKERELVAAITGSGDSTYYADSVKGRFTISRDNAKNTVYLQMNSLKPEDTAVYYCAAANSFYYIATGEYDYWGQGTQVNVSS
  polyreactivity (PSR sort gate): high polyreactivity

## QVQLVESGGGLVQAGGSLRLSCAASGSTFYSNAMGWYRQAPGKERELVAAINYSGGGTYYADSVKGRFTISRDNAKNTVYLQMNSLKPEDTAVYYCAADGSYVHWEYGYWGQGTQVTVSS
  polyreactivity (PSR sort gate): low polyreactivity

## QVQLVESGGGLVQAGGSLRLSCAASGSTFYSNAMGWYRQAPGKERELVAAISRRGSSTYYADSVKGRFTISRDNAKNTVYLQMNSLKPEDTAVYYCNAVGTGGYSSEYGYWGQGTQVTVSS
  polyreactivity (PSR sort gate): high polyreactivity

## QVQLVESGGGLVQAGGSLRLSCAASGSTFYSNAMGWYRQAPGKERELVAAITDGDRTNYADSVKGRFTISRDNAKNTVYLQMNSLKPEDTAVYYCAADYAVYLGVSPDYGYWGQGTQVTVSS
  polyreactivity (PSR sort gate): low polyreactivity

## QVQLVESGGGLVQAGGSLRLSCAASGSTFYSYAMGWYRQAHGQERELVAAISYSGGSTYYADSVKGRFTISRDNAKNTVYLQMNSLKPADTAVYYCNARAVYPAGYAYDYWGQGTQVTVSS
  polyreactivity (PSR sort gate): high polyreactivity

## QVQLVESGGGLVQAGGSLRLSCAASGSTFYSYAMGWYRQAPGKEREFVAVISWSGGRTRYADSVKGRFTISRDNAKNTVYLQMNSLKPEDTAVYYCNARKWGYSPHRKGDRHFEYWGQGTQVTVSS
  polyreactivity (PSR sort gate): low polyreactivity

## QVQLVESGGGLVQAGGSLRLSCAASGSTFYSYAMGWYRQAPGKERELVADITDSGGSTYYADSVKGRFTISRDNAKNTVYLQMNSLKPEDTALFYCNAAYYIWYNKVSSTYGIHGMDYWGQGTQVTVSS
  polyreactivity (PSR sort gate): high polyreactivity

## QVQLVESGGGLVQAGGSLRLSCAASGSTFYSYSMGWNRQAPGKERELVAAITKSGGSTYYADSVKGRFTISRDNAKNTVYLQMNSLKPEDTAVYYCAARQGVRMYWGQVTQVTVSS
  polyreactivity (PSR sort gate): high polyreactivity

— the nanobody polyreactivity screen of Harvey et al. (2022)
